Results: US20010029293A1 (ICOS, published 2001)

Tests used:
human ICAM-1 = biological target: T1, human ICAM-1 (human, UniProt P05362 28-532); assay: FACS, 5 µg/ml
T1 construct: whole, on cells; on transfected L or COS cells

human ICAM-R [1] = biological target: T2, human ICAM-R (human, UniProt P32942 30-547); assay: FACS, 5 µg/ml
T2 construct: On transfected L, CV-1 or COS cells, or native on human leukocytes and cell lines; also called ICAM-3; CDw50
T2 chain: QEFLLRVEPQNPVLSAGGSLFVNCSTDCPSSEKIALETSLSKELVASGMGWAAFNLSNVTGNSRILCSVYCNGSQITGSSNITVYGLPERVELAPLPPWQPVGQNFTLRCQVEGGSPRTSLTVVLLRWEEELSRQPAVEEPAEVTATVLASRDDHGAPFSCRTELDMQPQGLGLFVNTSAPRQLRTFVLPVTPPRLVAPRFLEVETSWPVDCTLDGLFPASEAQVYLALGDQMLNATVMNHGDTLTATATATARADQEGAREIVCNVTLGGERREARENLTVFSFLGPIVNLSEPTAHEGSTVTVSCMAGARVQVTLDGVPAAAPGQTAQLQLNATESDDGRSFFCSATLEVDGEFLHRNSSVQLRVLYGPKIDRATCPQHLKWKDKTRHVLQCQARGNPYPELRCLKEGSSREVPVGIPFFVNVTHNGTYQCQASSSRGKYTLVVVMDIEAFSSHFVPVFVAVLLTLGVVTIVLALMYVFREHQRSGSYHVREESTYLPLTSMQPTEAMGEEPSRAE

[2] = biological target: T3, chimeric Protein 3 (ICAM-R domains 1-3 / ICAM-1) (human, UniProt P05362 317-532); assay: FACS, 5 µg/ml
T3 construct: range 317-532; on COS cells; also called Protein number 3; RD1-3.1D4-5

human ICAM-R [3] = biological target: T2, human ICAM-R; assay: cell-based or functional assay
soluble human ICAM-R = biological target: T4, soluble human ICAM-R (human, UniProt P32942 30-485); assay: ELISA on coated shICAM-R; Low = 50% maximal binding at >1 µg/ml, High = at <1 µg/ml
T4 construct: baculovirus/Sf-9 product; also called shICAM-R; ICAM-Rt1
T4 chain: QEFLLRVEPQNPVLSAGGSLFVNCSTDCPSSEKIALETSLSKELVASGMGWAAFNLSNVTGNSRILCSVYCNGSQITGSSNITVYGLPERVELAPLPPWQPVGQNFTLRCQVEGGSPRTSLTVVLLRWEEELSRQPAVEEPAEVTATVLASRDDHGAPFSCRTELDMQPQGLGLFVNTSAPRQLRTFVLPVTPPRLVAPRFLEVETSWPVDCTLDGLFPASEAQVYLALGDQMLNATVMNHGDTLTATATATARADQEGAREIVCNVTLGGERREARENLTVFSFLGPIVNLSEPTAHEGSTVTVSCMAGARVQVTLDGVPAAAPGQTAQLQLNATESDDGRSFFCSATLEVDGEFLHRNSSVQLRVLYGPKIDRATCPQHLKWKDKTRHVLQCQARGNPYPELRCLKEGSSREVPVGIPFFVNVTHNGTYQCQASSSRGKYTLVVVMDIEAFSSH

T1 sequence (P05362 28-532): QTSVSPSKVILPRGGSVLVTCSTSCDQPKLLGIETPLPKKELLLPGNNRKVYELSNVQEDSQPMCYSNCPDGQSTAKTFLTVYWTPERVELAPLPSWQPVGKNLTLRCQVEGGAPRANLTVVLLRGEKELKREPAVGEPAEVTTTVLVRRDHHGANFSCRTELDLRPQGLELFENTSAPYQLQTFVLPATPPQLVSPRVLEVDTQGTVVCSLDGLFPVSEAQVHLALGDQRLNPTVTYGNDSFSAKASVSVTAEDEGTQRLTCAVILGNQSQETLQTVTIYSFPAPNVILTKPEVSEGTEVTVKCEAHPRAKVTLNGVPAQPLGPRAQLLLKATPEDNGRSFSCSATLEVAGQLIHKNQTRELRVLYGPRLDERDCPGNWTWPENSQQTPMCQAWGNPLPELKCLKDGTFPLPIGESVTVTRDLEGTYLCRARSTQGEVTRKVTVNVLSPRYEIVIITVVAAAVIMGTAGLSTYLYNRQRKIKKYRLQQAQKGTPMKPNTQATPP

B1: ICR-1.1 (antibody, mouse IgG2a, V domains shown)
VH: QVQLQQSGAELADPGASVKMSCKASGYTFTVYWMHWVKQRPGQGLEWIGYINPNTDYTEYNQRFQDKATLTADKSSSTAYMQLSSLTSEDSAVYYCARWGGNSYGLDYWGQGTSVTVSS
VL: QIVLTQSPALMSASPGEKVTMTCSASSSVSYIYWYQQKPRSSPKPWIYLTSNLASGVPARFSGSGSGASYSLTISIMEAEDAATYYCQQWKSIPLTFGAGTKLELK
notes: murine IgG2a, kappa; also called 26E3D; 26E3D-1
percent positive COS cell transfectants (human ICAM-1): 2.43% | percent positive COS cell transfectants (human ICAM-R [1]): 54.3% | percent positive COS cell transfectants [2]: 52.7% | IC50 (µg/ml), inhibition of SEA-induced PBL proliferation by plate-bound antibody (human ICAM-R [3]): 63 µg/mL | monoclonal antibody concentration at 50% maximal binding (ELISA EC50) (soluble human ICAM-R): > 1 µg/mL
